Source: patent US20210221907A1 (published 2021)
Substitutions are numbered along the chain they refer to. One block for each binder: values may come before it.

Columns and labels:
[1] = molecular target: T1, recombinant TROP2 protein (UniProt P09758 27-274, limits assumed); test: ELISA titration, antibody with varying concentrations of recombinant TROP2 protein
T1 construct: also called rProtein
T1 sequence (looked up): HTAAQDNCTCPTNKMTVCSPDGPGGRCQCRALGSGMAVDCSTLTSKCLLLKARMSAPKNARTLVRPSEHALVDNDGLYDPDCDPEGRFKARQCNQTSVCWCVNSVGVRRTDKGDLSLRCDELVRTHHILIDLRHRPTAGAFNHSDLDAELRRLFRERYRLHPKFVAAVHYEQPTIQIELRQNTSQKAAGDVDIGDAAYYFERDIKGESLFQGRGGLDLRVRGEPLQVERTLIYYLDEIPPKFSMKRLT
Method: Antibodies were tested in an antigen binding assay using ELISA titration experiments. Antibodies were incubated with varying concentrations of recombinant TROP2 protein [rProtein].

[2] = molecular target: T2, TROP2 on MDA-468 cells over-expressing TROP2 (TROP2+ MDA-468) (UniProt P09758 27-323); test: cell-based or functional assay
T2 sequence (looked up): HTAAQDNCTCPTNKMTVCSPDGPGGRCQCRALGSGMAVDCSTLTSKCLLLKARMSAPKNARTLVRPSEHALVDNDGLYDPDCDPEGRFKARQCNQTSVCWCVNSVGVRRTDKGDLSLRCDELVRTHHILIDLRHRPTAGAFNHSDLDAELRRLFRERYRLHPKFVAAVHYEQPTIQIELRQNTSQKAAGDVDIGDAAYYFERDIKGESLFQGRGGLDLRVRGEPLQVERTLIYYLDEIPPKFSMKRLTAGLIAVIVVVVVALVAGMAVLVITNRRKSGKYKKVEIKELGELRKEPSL

rProtein ELISA Affinity [1]: < 0.1 nM
B1: TROP2-Ab46 (antibody, V domains shown)
VH: QVQLQQPGAELVRPGASVRLSCKSSGYTFTSYWINWVKQRPGQGLEWIGNIFPSHSYTNYNQKFRDKATLTVDKSSSTAYLQLSSPTSDDSAVYYCTRGSGFDYWGQGTALTVSS
VL: DILLTQSPAILSVSPGERVSFSCRASQNIGTSIHWYQQRTNGSPRLLISYASESISGIPSRFSGSGSGTDFTLIINSVESEDIADYYCQHSYSWPFTFGSGTKLEVK
notes: Monoclonal antibody from a hybridoma clone
Indirect Cytotoxicity Cell viability % [2]: 27%
Indirect Cytotoxicity IC50 [2]: 0.0672 nM

rProtein ELISA Affinity [1]: < 0.1 nM
B2: TROP2-Ab50 (antibody, V domains shown)
VH: QVQLQQSGAELVRPGTSVKISCKASGYTFTNYWLDWIKQRPGQGLEWIGNIFPGGDYTNYNEEFRGKATLTADTSSRTAFMQLSSLTSEDSAVYFCARSSYDYWGQGTLVTVSA
VL: B1 VL with S49K, A51S, T72S, I74T, A84G, S93T, V106I
notes: Monoclonal antibody from a hybridoma clone; also called TROP2 -Ab0
Indirect Cytotoxicity Cell viability % [2]: 45%
Indirect Cytotoxicity IC50 [2]: 0.0992 nM

rProtein ELISA Affinity [1]: < 0.1 nM
B3: TROP2-Ab8 (antibody, V domains shown)
VH: QVQLQQSGPEVVKPGASVKMSCKASGYRFTDYVINWVKQRTGQGLEWIGQIYPGSDSFHYNKNFKGKATLTADKSSNTAYMQLNSLTSEDSAVYFCARFFEGLAYWGQGTLVTVSA
VL: DIKMTQSPSSMYAFLGERVTITCKASQGINNYLSWFQLKPGKSPKSLIYRANRLVDGVPSRFSGSGSGQDYSLTISSLDYEDMGIYYCLQYDEFPLTFGGGTKLELK
notes: as for B1
Indirect Cytotoxicity Cell viability % [2]: 26%
Indirect Cytotoxicity IC50 [2]: 0.0271 nM

rProtein ELISA Affinity [1]: 0.19 nM
B4: TROP2-Ab22 (antibody, V domains shown)
VH: QVQLQQSGPELVKPGASVKMSCKASGYTFTDYVINWVKQRPGQGLEWVGQIYPGSDGTYYNEPFKGEATLTADKSSNTAYMQLSSLTSEDSAVYFCARFFEGFAYWGQGTLVTVSA
VL: B3 VL with Y12F, F14S, G28D, N31W, L38Q, S46T, I85V, D92E, G100A
notes: as for B1
Indirect Cytotoxicity Cell viability % [2]: 34%
Indirect Cytotoxicity IC50 [2]: 0.0587 nM

rProtein ELISA Affinity [1]: < 0.1 nM
B5: TROP2-Ab51 (antibody, V domains shown)
VH: B3 VH with K23R, L103F
VL: B3 VL
notes: as for B1
Indirect Cytotoxicity Cell viability % [2]: 39%
Indirect Cytotoxicity IC50 [2]: 0.0567 nM

rProtein ELISA Affinity [1]: 0.1 nM
B6: TROP2-Ab7 (antibody, V domains shown)
VH: B3 VH with T41S, S57T, L103F
VL: B3 VL with Q37H, M83V
notes: Monoclonal antibody from a hybridoma clone (V regions amplified with mouse Ig primers)
Indirect Cytotoxicity Cell viability % [2]: 34%
Indirect Cytotoxicity IC50 [2]: 0.044 nM
